US20110165564, “SEQUENCE-SPECIFIC DETECTION OF METHYLATION IN BIOMOLECULES” (MAX-PLANCK-GESELLSCHAFT ZUR FÖRDERUNG DER …, published 2011)

Molecular target: T1, M.HhaI (DNA cytosine-5 methyltransferase) (Haemophilus haemolyticus, UniProt P05102 P05102:1-327)
T1 sequence: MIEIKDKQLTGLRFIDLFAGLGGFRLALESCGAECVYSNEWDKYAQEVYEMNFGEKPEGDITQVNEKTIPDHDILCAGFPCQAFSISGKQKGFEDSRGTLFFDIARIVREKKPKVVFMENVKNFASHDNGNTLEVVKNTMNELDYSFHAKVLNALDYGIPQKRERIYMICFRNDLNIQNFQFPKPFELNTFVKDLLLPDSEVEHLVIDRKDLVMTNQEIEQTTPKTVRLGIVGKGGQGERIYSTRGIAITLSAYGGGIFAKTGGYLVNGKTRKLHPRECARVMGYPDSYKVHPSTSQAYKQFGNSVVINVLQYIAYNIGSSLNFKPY
Assay: anion exchange HPLC; coupling of aziridine cofactors 1, 2, 3 almost complete; non-covalent M.HhaI-product DNA complex; 10 mM Tris pH 7.4, 50 mM NaCl, 37 C
Procedure: Solutions (400 μL) of aziridine cofactor 1, 2 or 3 (32 nmol, 80 μM), duplex oligodeoxynucleotide I-II (4 nmol, 10 μM) and M.HhaI (4.4 nmol, 11 μM) in buffer (10 mM Tris hydrochloride, pH 7.4, 50 mM sodium chloride, 0.05 mM ethylenediaminetetraacetic acid and 2 mM β-mercaptoethanol) were incubated at 37° C. The progress of the coupling reactions was monitored by anion exchange HPLC (Poros 10 HQ, 10 μm, 4.6×10 mm, Applied Biosystems). Compounds were eluted with aqueous potassium chloride (0.2 M for 5 min, followed by linear gradients to […], to 0.6 M in 20 min and to 1 M in 5 min) in Tris hydrochloride buffer (10 mM, pH 7.6) at a flow of 4 mL/min. […] These new compounds are assigned to non-covalent protein-DNA complexes between M.HhaI and the coupling products I¹-II, I²-II and I³-II based on their UV absorption ratio at 260 nm and 280 nm.
The presence and functionality of biotin groups in I¹-II, I²-II and I³-II were verified by addition of streptavidin. Residual aziridine cofactors 1, 2 or 3 were first removed from the labelled duplexes I¹-II, I²-II or I³-II by gel filtration using NAP-5 columns (Amersham Biosciences, Freiburg, Germany) according to the instructions of the supplier. Afterwards, streptavidin (25 μg) was added to the solutions (25 μL, 0.25 nmol I¹-II, I²-II or I³-II) and incubation was performed at 37° C. for 30 min.

B1: duplex I-II (hemimethylated) (dsDNA)
DNA 1: TGTCAGCGCATGA
DNA 2: TCATGCGCTGACA
modifications: 5mC at M in lower strand 5'-…-3'
- binding result: binds
